Assay results taken from US20160272683A1 (Novo Nordisk, published 2016).
Numbered stars: 1 amine (or outer) side, 2 acyl side, 3 side chain; on linkers, the order of the positions; unused ones are H or OH. * marks the point of attachment. C20 diacid = O=C(O)CCCCCCCCCCCCCCCCCCC(=O)*; C18 diacid = O=C(O)CCCCCCCCCCCCCCCCC(=O)*; γGlu = O=C(O)[C@H](CCC(=O)[*:2])N[*:1]

T1: human amylin receptor (human calcitonin receptor + human RAMP3) (human) (UniProt P30988)
T1 sequence (looked up) 1: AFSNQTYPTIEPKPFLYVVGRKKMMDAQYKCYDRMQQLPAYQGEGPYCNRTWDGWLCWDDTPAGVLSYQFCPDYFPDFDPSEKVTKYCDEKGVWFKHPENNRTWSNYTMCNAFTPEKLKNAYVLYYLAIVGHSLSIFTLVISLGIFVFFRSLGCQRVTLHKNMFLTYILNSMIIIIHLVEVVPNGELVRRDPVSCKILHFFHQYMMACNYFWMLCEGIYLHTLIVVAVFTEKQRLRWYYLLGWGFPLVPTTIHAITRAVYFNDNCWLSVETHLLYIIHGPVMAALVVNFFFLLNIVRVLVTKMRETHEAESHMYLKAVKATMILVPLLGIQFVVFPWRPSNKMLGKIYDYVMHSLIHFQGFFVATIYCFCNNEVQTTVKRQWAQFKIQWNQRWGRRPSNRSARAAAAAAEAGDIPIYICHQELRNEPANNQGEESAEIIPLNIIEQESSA
T1 sequence (looked up) 2: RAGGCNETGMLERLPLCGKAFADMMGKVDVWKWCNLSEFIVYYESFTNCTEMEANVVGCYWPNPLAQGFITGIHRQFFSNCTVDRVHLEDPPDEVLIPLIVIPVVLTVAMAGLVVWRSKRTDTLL

B1: [N-terminal(C20 diacid-gGlu), des1, 23Y, 30S, 31G, 32A]mimylin (peptide)
peptide: {C20 diacid-γGlu}-ASELSTAALGRLSAELHELATYPRTETGSGAP-NH2
SMILES: CC(C)C[C@H](NC(=O)[C@H](C)NC(=O)[C@H](C)NC(=O)[C@@H](NC(=O)[C@H](CO)NC(=O)[C@H](CC(C)C)NC(=O)[C@H](CCC(=O)O)NC(=O)[C@H](CO)NC(=O)[C@H](C)NC(=O)CC[C@H](NC(=O)CCCCCCCCCCCCCCCCCCC(=O)O)C(=O)O)[C@@H](C)O)C(=O)NCC(=O)N[C@@H](CCCNC(=N)N)C(=O)N[C@@H](CC(C)C)C(=O)N[C@@H](CO)C(=O)N[C@@H](C)C(=O)N[C@@H](CCC(=O)O)C(=O)N[C@@H](CC(C)C)C(=O)N[C@@H](Cc1c[nH]cn1)C(=O)N[C@@H](CCC(=O)O)C(=O)N[C@@H](CC(C)C)C(=O)N[C@@H](C)C(=O)N[C@H](C(=O)N[C@@H](Cc1ccc(O)cc1)C(=O)N1CCC[C@H]1C(=O)N[C@@H](CCCNC(=N)N)C(=O)N[C@H](C(=O)N[C@@H](CCC(=O)O)C(=O)N[C@H](C(=O)NCC(=O)N[C@@H](CO)C(=O)NCC(=O)N[C@@H](C)C(=O)N1CCC[C@H]1C(N)=O)[C@@H](C)O)[C@@H](C)O)[C@@H](C)O
B2: [N-terminal(C20 diacid-gGlu), des1, 4G, 8L, 9V, 15Q, 21Q, 23Y, 30S, 31Q, 32T, 33Y]mimylin (peptide)
peptide: {C20 diacid-γGlu}-ASGLSTLVLGRLSQELHELQTYPRTETGSQTY-NH2
SMILES: CC(C)C[C@H](NC(=O)CNC(=O)[C@H](CO)NC(=O)[C@H](C)NC(=O)CC[C@H](NC(=O)CCCCCCCCCCCCCCCCCCC(=O)O)C(=O)O)C(=O)N[C@@H](CO)C(=O)N[C@H](C(=O)N[C@@H](CC(C)C)C(=O)N[C@H](C(=O)N[C@@H](CC(C)C)C(=O)NCC(=O)N[C@@H](CCCNC(=N)N)C(=O)N[C@@H](CC(C)C)C(=O)N[C@@H](CO)C(=O)N[C@@H](CCC(N)=O)C(=O)N[C@@H](CCC(=O)O)C(=O)N[C@@H](CC(C)C)C(=O)N[C@@H](Cc1c[nH]cn1)C(=O)N[C@@H](CCC(=O)O)C(=O)N[C@@H](CC(C)C)C(=O)N[C@@H](CCC(N)=O)C(=O)N[C@H](C(=O)N[C@@H](Cc1ccc(O)cc1)C(=O)N1CCC[C@H]1C(=O)N[C@@H](CCCNC(=N)N)C(=O)N[C@H](C(=O)N[C@@H](CCC(=O)O)C(=O)N[C@H](C(=O)NCC(=O)N[C@@H](CO)C(=O)N[C@@H](CCC(N)=O)C(=O)N[C@H](C(=O)N[C@@H](Cc1ccc(O)cc1)C(N)=O)[C@@H](C)O)[C@@H](C)O)[C@@H](C)O)[C@@H](C)O)C(C)C)[C@@H](C)O
B3: [N-terminal(C20 diacid-gGlu), des1, 4G, 15Q, 21Q, 23Y, 25H, 30S, 31G, 32T, 33Y]mimylin (peptide)
peptide: {C20 diacid-γGlu}-ASGLSTAALGRLSQELHELQTYPHTETGSGTY-NH2
SMILES: CC(C)C[C@H](NC(=O)CNC(=O)[C@H](CO)NC(=O)[C@H](C)NC(=O)CC[C@H](NC(=O)CCCCCCCCCCCCCCCCCCC(=O)O)C(=O)O)C(=O)N[C@@H](CO)C(=O)N[C@H](C(=O)N[C@@H](C)C(=O)N[C@@H](C)C(=O)N[C@@H](CC(C)C)C(=O)NCC(=O)N[C@@H](CCCNC(=N)N)C(=O)N[C@@H](CC(C)C)C(=O)N[C@@H](CO)C(=O)N[C@@H](CCC(N)=O)C(=O)N[C@@H](CCC(=O)O)C(=O)N[C@@H](CC(C)C)C(=O)N[C@@H](Cc1c[nH]cn1)C(=O)N[C@@H](CCC(=O)O)C(=O)N[C@@H](CC(C)C)C(=O)N[C@@H](CCC(N)=O)C(=O)N[C@H](C(=O)N[C@@H](Cc1ccc(O)cc1)C(=O)N1CCC[C@H]1C(=O)N[C@@H](Cc1c[nH]cn1)C(=O)N[C@H](C(=O)N[C@@H](CCC(=O)O)C(=O)N[C@H](C(=O)NCC(=O)N[C@@H](CO)C(=O)NCC(=O)N[C@H](C(=O)N[C@@H](Cc1ccc(O)cc1)C(N)=O)[C@@H](C)O)[C@@H](C)O)[C@@H](C)O)[C@@H](C)O)[C@@H](C)O
B4: [N-terminal(C20 diacid-gGlu), des1, 9S, 21S, 23Y, 30S, 31G, 33Y]mimylin (peptide)
peptide: {C20 diacid-γGlu}-ASELSTASLGRLSAELHELSTYPRTETGSGSY-NH2
SMILES: CC(C)C[C@H](NC(=O)[C@H](CO)NC(=O)[C@H](C)NC(=O)[C@@H](NC(=O)[C@H](CO)NC(=O)[C@H](CC(C)C)NC(=O)[C@H](CCC(=O)O)NC(=O)[C@H](CO)NC(=O)[C@H](C)NC(=O)CC[C@H](NC(=O)CCCCCCCCCCCCCCCCCCC(=O)O)C(=O)O)[C@@H](C)O)C(=O)NCC(=O)N[C@@H](CCCNC(=N)N)C(=O)N[C@@H](CC(C)C)C(=O)N[C@@H](CO)C(=O)N[C@@H](C)C(=O)N[C@@H](CCC(=O)O)C(=O)N[C@@H](CC(C)C)C(=O)N[C@@H](Cc1c[nH]cn1)C(=O)N[C@@H](CCC(=O)O)C(=O)N[C@@H](CC(C)C)C(=O)N[C@@H](CO)C(=O)N[C@H](C(=O)N[C@@H](Cc1ccc(O)cc1)C(=O)N1CCC[C@H]1C(=O)N[C@@H](CCCNC(=N)N)C(=O)N[C@H](C(=O)N[C@@H](CCC(=O)O)C(=O)N[C@H](C(=O)NCC(=O)N[C@@H](CO)C(=O)NCC(=O)N[C@@H](CO)C(=O)N[C@@H](Cc1ccc(O)cc1)C(N)=O)[C@@H](C)O)[C@@H](C)O)[C@@H](C)O
B5: [N-terminal(C20 diacid-gGlu), des1, 9V, 15Q, 21Q, 23Y, 30S, 31G, 32T, 33Y]mimylin (peptide)
peptide: {C20 diacid-γGlu}-ASELSTAVLGRLSQELHELQTYPRTETGSGTY-NH2
SMILES: CC(C)C[C@H](NC(=O)[C@H](CCCNC(=N)N)NC(=O)CNC(=O)[C@H](CC(C)C)NC(=O)[C@@H](NC(=O)[C@H](C)NC(=O)[C@@H](NC(=O)[C@H](CO)NC(=O)[C@H](CC(C)C)NC(=O)[C@H](CCC(=O)O)NC(=O)[C@H](CO)NC(=O)[C@H](C)NC(=O)CC[C@H](NC(=O)CCCCCCCCCCCCCCCCCCC(=O)O)C(=O)O)[C@@H](C)O)C(C)C)C(=O)N[C@@H](CO)C(=O)N[C@@H](CCC(N)=O)C(=O)N[C@@H](CCC(=O)O)C(=O)N[C@@H](CC(C)C)C(=O)N[C@@H](Cc1c[nH]cn1)C(=O)N[C@@H](CCC(=O)O)C(=O)N[C@@H](CC(C)C)C(=O)N[C@@H](CCC(N)=O)C(=O)N[C@H](C(=O)N[C@@H](Cc1ccc(O)cc1)C(=O)N1CCC[C@H]1C(=O)N[C@@H](CCCNC(=N)N)C(=O)N[C@H](C(=O)N[C@@H](CCC(=O)O)C(=O)N[C@H](C(=O)NCC(=O)N[C@@H](CO)C(=O)NCC(=O)N[C@H](C(=O)N[C@@H](Cc1ccc(O)cc1)C(N)=O)[C@@H](C)O)[C@@H](C)O)[C@@H](C)O)[C@@H](C)O
B6: [N-terminal(C20 diacid-gGlu), des1, 4G, 9T, 15Q, 21Q, 23Y, 25P, 30S, 31G, 32T, 33Y]mimylin (peptide)
peptide: {C20 diacid-γGlu}-ASGLSTATLGRLSQELHELQTYPPTETGSGTY-NH2
SMILES: CC(C)C[C@H](NC(=O)CNC(=O)[C@H](CO)NC(=O)[C@H](C)NC(=O)CC[C@H](NC(=O)CCCCCCCCCCCCCCCCCCC(=O)O)C(=O)O)C(=O)N[C@@H](CO)C(=O)N[C@H](C(=O)N[C@@H](C)C(=O)N[C@H](C(=O)N[C@@H](CC(C)C)C(=O)NCC(=O)N[C@@H](CCCNC(=N)N)C(=O)N[C@@H](CC(C)C)C(=O)N[C@@H](CO)C(=O)N[C@@H](CCC(N)=O)C(=O)N[C@@H](CCC(=O)O)C(=O)N[C@@H](CC(C)C)C(=O)N[C@@H](Cc1c[nH]cn1)C(=O)N[C@@H](CCC(=O)O)C(=O)N[C@@H](CC(C)C)C(=O)N[C@@H](CCC(N)=O)C(=O)N[C@H](C(=O)N[C@@H](Cc1ccc(O)cc1)C(=O)N1CCC[C@H]1C(=O)N1CCC[C@H]1C(=O)N[C@H](C(=O)N[C@@H](CCC(=O)O)C(=O)N[C@H](C(=O)NCC(=O)N[C@@H](CO)C(=O)NCC(=O)N[C@H](C(=O)N[C@@H](Cc1ccc(O)cc1)C(N)=O)[C@@H](C)O)[C@@H](C)O)[C@@H](C)O)[C@@H](C)O)[C@@H](C)O)[C@@H](C)O
B7: [N-terminal(C18 diacid-gGlu), des1, 6T, 9V, 14T, 21E, 30T, 31G, 32T]mimylin (peptide)
peptide: {C18 diacid-γGlu}-ASELTTAVLGRLTAELHELETLPRTETGTGTP-NH2
SMILES: CC(C)C[C@H](NC(=O)[C@H](CCC(=O)O)NC(=O)[C@H](C)NC(=O)[C@@H](NC(=O)[C@H](CC(C)C)NC(=O)[C@H](CCCNC(=N)N)NC(=O)CNC(=O)[C@H](CC(C)C)NC(=O)[C@@H](NC(=O)[C@H](C)NC(=O)[C@@H](NC(=O)[C@@H](NC(=O)[C@H](CC(C)C)NC(=O)[C@H](CCC(=O)O)NC(=O)[C@H](CO)NC(=O)[C@H](C)NC(=O)CC[C@H](NC(=O)CCCCCCCCCCCCCCCCC(=O)O)C(=O)O)[C@@H](C)O)[C@@H](C)O)C(C)C)[C@@H](C)O)C(=O)N[C@@H](Cc1c[nH]cn1)C(=O)N[C@@H](CCC(=O)O)C(=O)N[C@@H](CC(C)C)C(=O)N[C@@H](CCC(=O)O)C(=O)N[C@H](C(=O)N[C@@H](CC(C)C)C(=O)N1CCC[C@H]1C(=O)N[C@@H](CCCNC(=N)N)C(=O)N[C@H](C(=O)N[C@@H](CCC(=O)O)C(=O)N[C@H](C(=O)NCC(=O)N[C@H](C(=O)NCC(=O)N[C@H](C(=O)N1CCC[C@H]1C(N)=O)[C@@H](C)O)[C@@H](C)O)[C@@H](C)O)[C@@H](C)O)[C@@H](C)O

Columns and labels:
[1] = target: T1, human amylin receptor (human calcitonin receptor + human RAMP3) (human); assay: whole-cell competition vs 125I-rat amylin (Assay Va)
[2] = target: rat calcitonin receptor (rat) (UniProt P32214); assay: SPA competition vs 125I-calcitonin, membranes with rat CTR (Assay VIII)
[3] = target: rat amylin receptor (rat calcitonin receptor with rat RAMP 3) (rat) (UniProt P32214); assay: SPA competition vs 125I-rat amylin, membranes with rat CTR + rat RAMP3 (Assay VI)

| Binder | IC50 [1] | IC50 [2] | IC50 [3] |
| --- | --- | --- | --- |
| B1 | 2.02 nM | 0.039 nM | 0.026 nM |
| B2 | 1.48 nM | 0.031 nM | 0.091 nM |
| B3 | 0.142 nM | 0.031 nM | 0.026 nM |
| B4 | 3.17 nM | 0.062 nM | 0.046 nM |
| B5 | 0.278 nM | 0.021 nM | 0.146 nM |
| B6 | 0.116 nM | 0.028 nM | 0.098 nM |
| B7 | 22.9 nM | 0.072 nM | 0.162 nM |
